{"source": "patent US20250382602", "key": {"[1]": {"target": "T1, Dda 1993 C114A C114A (Enterobacteria phage T4) (UniProt P32270)", "T1 sequence": "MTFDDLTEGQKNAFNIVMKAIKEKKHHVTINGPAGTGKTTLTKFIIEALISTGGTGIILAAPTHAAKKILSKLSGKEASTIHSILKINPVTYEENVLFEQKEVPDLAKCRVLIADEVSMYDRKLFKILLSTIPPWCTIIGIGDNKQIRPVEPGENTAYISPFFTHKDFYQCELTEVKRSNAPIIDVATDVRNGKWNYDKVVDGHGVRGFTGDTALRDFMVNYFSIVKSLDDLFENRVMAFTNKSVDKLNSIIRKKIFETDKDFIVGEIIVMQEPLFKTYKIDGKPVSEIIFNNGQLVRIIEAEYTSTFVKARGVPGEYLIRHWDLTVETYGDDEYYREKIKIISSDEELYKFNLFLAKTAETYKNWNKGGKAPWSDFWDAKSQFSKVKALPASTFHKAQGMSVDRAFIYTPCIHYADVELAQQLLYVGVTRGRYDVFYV", "details": "nanopore translocation; background mutations not given"}, "[2]": {"target": "T2, Dda 1993 354Q 354Q (Enterobacteria phage T4) (UniProt P32270)", "T2 sequence": "T1 sequence with A114C, L354Q", "details": "nanopore translocation, FLO-MIN112; background mutations not given"}, "[3]": {"target": "T3, Dda 1993 351Q 351Q (Enterobacteria phage T4) (UniProt P32270)", "T3 sequence": "T1 sequence with A114C, K351Q", "details": "nanopore translocation, FLO-MIN112; background mutations not given"}, "[4]": {"target": "T4, Dda 1993 K358S K358S (Enterobacteria phage T4) (UniProt P32270)", "T4 sequence": "T1 sequence with A114C, K358S", "details": "nanopore translocation, FLO-MIN112; background mutations not given"}, "[5]": {"target": "T5, Dda 1993 K358I K358I (Enterobacteria phage T4) (UniProt P32270)", "T5 sequence": "T1 sequence with A114C, K358I", "details": "nanopore translocation, FLO-MIN112; background mutations not given"}, "[6]": {"target": "T6, Dda 1993 351I 351I (Enterobacteria phage T4) (UniProt P32270)", "T6 sequence": "T1 sequence with A114C, K351I", "details": "nanopore translocation, FLO-MIN112; background mutations not given"}}, "note": "Where a chain is given by its changes, count along the chain named."}
{"substance": "barcoded 3.6 kb DNA analyte ligated to sequencing Y adaptor", "values": [{"measurement": "activity (bps speed delta vs control)", "setting": "[1]", "value": 13.8}, {"measurement": "activity (bps speed delta vs control)", "setting": "[2]", "value": 0.09}, {"measurement": "activity (bps speed delta vs control)", "setting": "[3]", "value": -5.61}, {"measurement": "activity (bps speed delta vs control)", "setting": "[4]", "value": 1.6}, {"measurement": "activity (bps speed delta vs control)", "setting": "[5]", "value": -5.51}, {"measurement": "activity (bps speed delta vs control)", "setting": "[6]", "value": -9.76}]}
